Experimental data: publication PMC2805098 (Biochemistry, 2009)
Changes are numbered by the printed parent chain. Like-named read-outs stand apart in the source and are kept apart here.

B1: Phe223Leu (protein, UniProt P0AEZ1 1-296, looked up, variant F223L)
5,10-methylenetetrahydrofolate …: MSFFHASQRDALNQSLAEVQGQINVSFEFFPPRTSEMEQTLWNSIDRLSSLKPKFVSVTYGANSGERDRTHSIIKGIKDRTGLEAAPHLTCIDATPDELRTIARDYWNNGIRHIVALRGDLPPGSGKPEMYASDLVTLLKEVADFDISVAAYPEVHPEAKSAQADLLNLKRKVDAGANRAITQFFFDVESYLRFRDRCVSAGIDVEIIPGILPVSNFKQAKKLADMTNVRIPAWMAQMFDGLDDDAETRKLVGANIAMDMVKILSREGVKDFHFYTLNRAEMSYAICHTLGVRPGL
B2: Wild-type: wild-type histidine-tagged E. coli methylenetetrahydrofolate reductase (protein, UniProt P0AEZ1 1-296, looked up)
5,10-methylenetetrahydrofolate …: B1 5,10-methylenetetrahydrofolate … with L223F
modifications: histidine tag
B3: Phe223Ala: Phe223Ala mutant of histidine-tagged E. coli methylenetetrahydrofolate reductase (protein, UniProt P0AEZ1 1-296, looked up, variant F223A)
5,10-methylenetetrahydrofolate …: B1 5,10-methylenetetrahydrofolate … with L223A
modifications: histidine tag

What was measured:
[1] = Midpoint potential determination, xanthine/xanthine oxidase reducing system; assay type: physicochemical, Escherichia coli; conditions: two-electron, pH 7.2, 25 °C, reference dye phenosafranine
[2] = pH 7.2, 25 °C; cited from earlier work

Molecule | Midpoint Potential [1] | Midpoint Potential [2]
B1 | −240 ± 3 mV | –
B2 | – | −237 ± 4 mV
B3 | −236 ± 3 mV | –
